Experimental findings from publication doi:10.1101/2021.04.12.439405 (bioRxiv, 2021) are described below.

Common to all, as to experiment: native MS
The target in series [1] is MukB^N (MukB Neck) (E. coli).
The target in series [2] is MukB^HN (MukB Head-Neck) (E. coli).
The series “native MS” concerns the molecule itself.

For orientation: stoichiometry N means the number of molecules, sites or subunits per partner or assembly. Take MukB^N (MukB Neck) (domain or fragment): the stoichiometry N in series [1] was 2. With “Acyl Carrier Protein (AcpP), co-purified with MukB proteins (from UniProt P0A6A8 1-78) (natural protein)”, the stoichiometry N in series [2] and in series [1] was 1 throughout.

B1: MukB-His (wild type MukB) (natural protein, E. coli, UniProt P22523 1-1486, looked up)
chain: MIERGKFRSLTLINWNGFFARTFDLDELVTTLSGGNGAGKSTTMAAFVTALIPDLTLLHFRNTTEAGATSGSRDKGLHGKLKAGVCYSMLDTINSRHQRVVVGVRLQQVAGRDRKVDIKPFAIQGLPMSVQPTQLVTETLNERQARVLPLNELKDKLEAMEGVQFKQFNSITDYHSLMFDLGIIARRLRSASDRSKFYRLIEASLYGGISSAITRSLRDYLLPENSGVRKAFQDMEAALRENRMTLEAIRVTQSDRDLFKHLISEATNYVAADYMRHANERRVHLDKALEFRRELHTSRQQLAAEQYKHVDMARELAEHNGAEGDLEADYQAASDHLNLVQTALRQQEKIERYEADLDELQIRLEEQNEVVAEAIERQQENEARAEAAELEVDELKSQLADYQQALDVQQTRAIQYNQAIAALNRAKELCHLPDLTADCAAEWLETFQAKELEATEKMLSLEQKMSMAQTAHSQFEQAYQLVVAINGPLARNEAWDVARELLREGVDQRHLAEQVQPLRMRLSELEQRLREQQEAERLLADFCKRQGKNFDIDELEALHQELEARIASLSDSVSNAREERMALRQEQEQLQSRIQSLMQRAPVWLAAQNSLNQLSEQCGEEFTSSQDVTEYLQQLLEREREAIVERDEVGARKNAVDEEIERLSQPGGSEDQRLNALAERFGGVLLSEIYDDVSLEDAPYFSALYGPSRHAIVVPDLSQVTEHLEGLTDCPEDLYLIEGDPQSFDDSVFSVDELEKAVVVKIADRQWRYSRFPEVPLFGRAARESRIESLHAEREVLSERFATLSFDVQKTQRLHQAFSRFIGSHLAVAFESDPEAEIRQLNSRRVELERALSNHENDNQQQRIQFEQAKEGVTALNRILPRLNLLADDSLADRVDEIRERLDEAQEAARFVQQFGNQLAKLEPIVSVLQSDPEQFEQLKEDYAYSQQMQRDARQQAFALTEVVQRRAHFSYSDSAEMLSGNSDLNEKLRERLEQAEAERTRAREALRGHAAQLSQYNQVLASLKSSYDTKKELLNDLQRELQDIGVRADSGAEERARIRRDELHAQLSNNRSRRNQLEKALTFCEAEMDNLTRKLRKLERDYFEMREQVVTAKAGWCAVMRMVKDNGVERRLHRRELAYLSADDLRSMSDKALGALRLAVADNEHLRDVLRMSEDPKRPERKIQFFVAVYQHLRERIRQDIIRTDDPVEAIEQMEIELSRLTEELTSREQKLAISSRSVANIIRKTIQREQNRIRMLNQGLQNVSFGQVNSVRLNVNVRETHAMLLDVLSEQHEQHQDLFNSNRLTFSEALAKLYQRLNPQIDMGQRTPQTIGEELLDYRNYLEMEVEVNRGSDGWLRAESGALSTGEAIGTGMSILVMVVQSWEDESRRLRGKDISPCRLLFLDEAARLDARSIATLFELCERLQMQLIIAAPENISPEKGTTYKLVRKVFQNTEHVHVVGLRGFAPQLPETLPGTDEAPSQAS
Regarding B1, in the series “native MS”, the binding result is listed as “binds”.
